Experimental data: patent publication US8586570B2, “Sox-based kinase sensor” (Massachusetts Institute of Technology, priority 2006, dated 2013)

Columns and labels:
Assay in all cases: Cross-reactivity of PKCα-S10 with PKC isozymes
Format in all cases: biochemical
Conditions in all cases: peptide 1 μM, isozyme 2 ng
[1] = biological target: T1, PKCι (Homo sapiens, UniProt P41743)
T1 sequence (P41743 1-596): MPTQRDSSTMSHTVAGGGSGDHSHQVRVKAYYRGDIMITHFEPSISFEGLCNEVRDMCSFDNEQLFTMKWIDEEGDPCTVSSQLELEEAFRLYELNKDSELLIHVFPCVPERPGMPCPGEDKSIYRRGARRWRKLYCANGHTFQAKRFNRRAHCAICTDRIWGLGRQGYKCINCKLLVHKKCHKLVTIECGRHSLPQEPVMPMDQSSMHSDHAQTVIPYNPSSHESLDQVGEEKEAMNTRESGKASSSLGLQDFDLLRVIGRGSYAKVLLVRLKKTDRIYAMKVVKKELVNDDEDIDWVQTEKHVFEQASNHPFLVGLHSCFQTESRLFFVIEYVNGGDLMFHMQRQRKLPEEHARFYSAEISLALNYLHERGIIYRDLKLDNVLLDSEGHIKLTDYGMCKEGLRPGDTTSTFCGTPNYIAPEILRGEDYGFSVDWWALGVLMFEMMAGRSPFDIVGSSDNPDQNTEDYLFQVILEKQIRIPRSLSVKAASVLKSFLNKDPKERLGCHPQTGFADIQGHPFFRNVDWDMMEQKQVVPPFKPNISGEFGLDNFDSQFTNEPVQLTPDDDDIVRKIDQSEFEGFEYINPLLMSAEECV
Procedure: (§1) With the kinetic parameters at hand it is possible to test the cross-reactivity of PKCα-S10 with PKC isozymes. In 12 separate reactions PKCα-S10 (1 μM) is subjected to phosphorylation with PKCα, PKCβI, PKCβII, PKCγ, PKCδ, PKCε, PKCζ, PKCη, PKCθ, PKCι, PKCμ and PKCν (2 ng).

[2] = biological target: T2, PKCν (Homo sapiens, UniProt O94806)
T2 sequence (O94806 1-890): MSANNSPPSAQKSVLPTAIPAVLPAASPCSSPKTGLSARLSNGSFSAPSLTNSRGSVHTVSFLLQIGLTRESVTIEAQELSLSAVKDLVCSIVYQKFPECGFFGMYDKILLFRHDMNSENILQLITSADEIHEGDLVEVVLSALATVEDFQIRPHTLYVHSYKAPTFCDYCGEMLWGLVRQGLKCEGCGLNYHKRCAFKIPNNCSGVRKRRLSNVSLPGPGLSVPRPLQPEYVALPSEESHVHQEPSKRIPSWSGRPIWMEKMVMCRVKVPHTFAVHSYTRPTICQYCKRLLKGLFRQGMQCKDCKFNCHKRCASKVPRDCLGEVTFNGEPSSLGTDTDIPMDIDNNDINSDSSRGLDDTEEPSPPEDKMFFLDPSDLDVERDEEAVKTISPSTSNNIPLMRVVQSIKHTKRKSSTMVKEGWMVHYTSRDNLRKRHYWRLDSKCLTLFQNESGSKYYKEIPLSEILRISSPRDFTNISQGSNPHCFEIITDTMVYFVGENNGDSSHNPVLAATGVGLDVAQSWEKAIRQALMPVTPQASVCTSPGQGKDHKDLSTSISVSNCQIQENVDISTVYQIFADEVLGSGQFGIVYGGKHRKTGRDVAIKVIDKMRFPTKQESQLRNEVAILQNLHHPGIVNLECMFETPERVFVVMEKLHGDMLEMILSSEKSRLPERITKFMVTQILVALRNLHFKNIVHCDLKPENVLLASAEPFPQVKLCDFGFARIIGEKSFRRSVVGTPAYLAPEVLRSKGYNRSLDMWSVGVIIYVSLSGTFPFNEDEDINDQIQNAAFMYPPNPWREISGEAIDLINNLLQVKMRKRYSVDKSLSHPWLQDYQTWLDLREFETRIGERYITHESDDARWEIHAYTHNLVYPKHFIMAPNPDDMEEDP
Procedure: as §1

[3] = biological target: PKCβI (Homo sapiens, UniProt P05771)
Procedure: as §1

[4] = biological target: T3, PKCμ (Homo sapiens, UniProt Q15139)
T3 sequence (Q15139 1-912): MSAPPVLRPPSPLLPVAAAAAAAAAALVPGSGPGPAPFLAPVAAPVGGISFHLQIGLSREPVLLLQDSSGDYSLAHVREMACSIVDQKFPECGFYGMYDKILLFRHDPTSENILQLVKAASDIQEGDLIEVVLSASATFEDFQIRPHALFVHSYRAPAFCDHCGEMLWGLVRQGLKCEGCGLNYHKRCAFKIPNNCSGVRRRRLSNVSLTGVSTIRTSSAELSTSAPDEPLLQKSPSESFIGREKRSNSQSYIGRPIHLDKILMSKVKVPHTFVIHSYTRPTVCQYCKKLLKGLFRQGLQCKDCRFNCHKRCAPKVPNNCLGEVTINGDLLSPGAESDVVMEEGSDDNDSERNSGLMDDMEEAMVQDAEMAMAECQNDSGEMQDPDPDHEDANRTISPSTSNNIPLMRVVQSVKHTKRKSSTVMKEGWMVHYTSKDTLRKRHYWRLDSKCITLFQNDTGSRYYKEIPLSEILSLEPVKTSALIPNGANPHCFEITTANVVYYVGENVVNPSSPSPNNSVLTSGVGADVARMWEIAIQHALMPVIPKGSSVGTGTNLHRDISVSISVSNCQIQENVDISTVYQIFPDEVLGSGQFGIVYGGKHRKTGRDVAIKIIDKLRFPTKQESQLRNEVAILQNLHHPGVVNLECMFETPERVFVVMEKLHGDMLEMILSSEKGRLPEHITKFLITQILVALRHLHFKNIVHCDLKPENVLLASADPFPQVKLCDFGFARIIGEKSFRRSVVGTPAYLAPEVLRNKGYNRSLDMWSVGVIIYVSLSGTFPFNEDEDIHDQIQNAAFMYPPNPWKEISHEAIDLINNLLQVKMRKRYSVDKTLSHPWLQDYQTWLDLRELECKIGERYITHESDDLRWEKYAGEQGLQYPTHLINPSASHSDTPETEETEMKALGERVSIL
Procedure: as §1

PKCβI, sequence (P05771 whole entry): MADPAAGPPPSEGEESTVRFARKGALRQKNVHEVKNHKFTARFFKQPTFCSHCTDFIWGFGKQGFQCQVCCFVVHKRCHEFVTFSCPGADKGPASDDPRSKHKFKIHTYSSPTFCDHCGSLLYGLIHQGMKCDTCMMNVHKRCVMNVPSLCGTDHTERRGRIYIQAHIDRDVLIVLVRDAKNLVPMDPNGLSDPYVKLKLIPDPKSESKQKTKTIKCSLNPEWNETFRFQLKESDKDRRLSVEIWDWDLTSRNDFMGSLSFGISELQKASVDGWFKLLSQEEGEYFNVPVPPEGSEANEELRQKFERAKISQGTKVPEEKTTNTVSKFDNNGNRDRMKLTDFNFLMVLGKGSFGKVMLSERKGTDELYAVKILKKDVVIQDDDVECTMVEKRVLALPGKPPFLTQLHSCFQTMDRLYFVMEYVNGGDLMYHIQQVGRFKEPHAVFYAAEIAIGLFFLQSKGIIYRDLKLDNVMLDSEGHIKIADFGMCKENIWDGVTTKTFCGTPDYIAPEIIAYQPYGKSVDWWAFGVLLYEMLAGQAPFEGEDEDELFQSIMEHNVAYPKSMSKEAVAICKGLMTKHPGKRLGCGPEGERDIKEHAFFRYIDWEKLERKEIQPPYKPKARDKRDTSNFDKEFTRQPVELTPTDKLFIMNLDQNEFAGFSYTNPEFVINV

Substance: Ac-RRR-C(Sox)-ASFRRKA-CONH2 [PKCα-S10(P10), Sox chemosensor with extended recognition domain for PKCα]
- activity of isozyme on peptide [1]: very little activity
- activity of isozyme on peptide [2]: no activity
- activity of isozyme on peptide compared with PKCα [3]: slightly more active than PKCα
- activity of isozyme on peptide [4]: no activity
